Patent US20250152742A1, “COMPOSITIONS AND METHODS FOR NEUROLOGICAL DISEASES” (Trames Bio, Inc., priority 2022, published 2025)

Tested on: engineered chimeric receptor SEQ ID NO: 33 and its mutants (human α7-nAChR ligand binding domain / human GlyRα1 ion pore domain) in Lenti-X 293T cells
Assay: YFP fluorescence quenching anion reporter plate reader assay (percent quench, EC50)
Format: cell-based
Conditions: for YFP fluorescence quenching using CNL001 (percent quench): receptor named in row; for YFP fluorescence quenching using Varenicline, 3 nM var: ligand Varenicline 3 nM; for YFP fluorescence quenching using Varenicline, 30 nM var: ligand Varenicline 30 nM; for YFP fluorescence quenching using Varenicline, 300 nM var: ligand Varenicline 300 nM; for YFP fluorescence quenching using Varenicline, 500 nM var: ligand Varenicline 500 nM; for YFP fluorescence quenching using Varenicline, 1 uM var: ligand Varenicline 1 uM
In short: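 Percent quench compares mean YFP signal over the final 10 s with the 15 s baseline before ligand, added in iodide-containing extracellular solution (pH 7.2). Cells were LX293T carrying a YFP anion reporter, transiently transfected with the channel construct; plates were preincubated 30 min at 37 °C.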

B1: CODA377: engineered receptor: S172D in SEQ ID NO: 33 (protein)
chain: MRCSPGGVWLALAASLLHVSLQGEFQRKLYKELVKNYNPLERPVANDSQPLTVYFSLSLLQIMDVDEKNQVLTTNIWLQMSWTDHYLQWNVSEYPGVKTVRFPDGQIWKPDILLYNSADERFDATFHTNVLVNSSGHCQYLPPGIFKSSCPMDLKNFPMDVQTCKLKFGSWDYGGWSLDLQMQEADISGYIPNGEWDLVGIPGKRSERFYECCKEPYPDVTFTVTMRRRMGYYLIQMYIPSLLIVILSWISFWINMDAAPARVGLGITTVLTMTTQSSGSRASLPKVSYVKAIDIWMAVCLLFVFSALLEYAAVNFVSRQHKELLRFRRKRRHHKSPMLNLFQEDEAGEGRFNFSAYGMGPACLQAKDGISVKGANNSNTTNPPPAPSKSPEEMRKLFIQRAKKIDKISRIGFPMAFLIFNMFYWIIYKIVRREDVHNQ
modifications: synthetic sequence of chimeric LGIC
- YFP fluorescence quenching using CNL001 (percent quench) (1 nM CNL001, first column so headed): 67.544%
- YFP fluorescence quenching using CNL001 (percent quench) (1 nM CNL001, second column so headed): 74.209%
- YFP fluorescence quenching using TC-5619/Bradanicline (percent quench) (1 nM brd (TC-5619/Bradanicline)): 0.77%
- YFP fluorescence quenching using TC-5619/Bradanicline (percent quench) (3 nM brd (TC-5619/Bradanicline)): −4.59%
- YFP fluorescence quenching using CNL001 (percent quench) (10 nM CNL001, first column so headed): 74.346%
- YFP fluorescence quenching using CNL001 (percent quench) (10 nM CNL001, second column so headed): 75.816%
- YFP fluorescence quenching using TC-5619/Bradanicline (percent quench) (10 nM brd (TC-5619/Bradanicline)): 0.06%
- YFP fluorescence quenching using TC-6683 (percent quench) (30 nM TC-6683): −20.23%
- YFP fluorescence quenching using TC-5619/Bradanicline (percent quench) (30 nM brd (TC-5619/Bradanicline)): −10.48%
- YFP fluorescence quenching using CNL001 (percent quench) (50 nM CNL001, first column so headed): 77.068%
- YFP fluorescence quenching using CNL001 (percent quench) (50 nM CNL001, second column so headed): 76.99%
- YFP fluorescence quenching using ABT-126 (percent quench) (50 nM abt (ABT-126)): −1.53%
- YFP fluorescence quenching using CNL001 (percent quench) (100 nM CNL001, first column so headed): 79.352%
- YFP fluorescence quenching using CNL001 (percent quench) (100 nM CNL001, second column so headed): 77.865%
- YFP fluorescence quenching (percent quench) (100 nM CNL002): 59.35%
- YFP fluorescence quenching using ABT-126 (percent quench) (100 nM abt (ABT-126)): 18.18%
- YFP fluorescence quenching using AZD-0328 (percent quench) (100 nM azd0328): 65.04%
- YFP fluorescence quenching using TC-5619/Bradanicline (percent quench) (100 nM brd (TC-5619/Bradanicline)): 0.25%
- YFP fluorescence quenching using TC-6683 (percent quench) (300 nM TC-6683): −13.94%
- YFP fluorescence quenching using ABT-126 (percent quench) (300 nM abt (ABT-126)): 59.15%
- YFP fluorescence quenching using AZD-0328 (percent quench) (300 nM azd0328): 81.73%
- YFP fluorescence quenching using TC-5619/Bradanicline (percent quench) (300 nM brd (TC-5619/Bradanicline)): −10.61%
- YFP fluorescence quenching using CNL001 (percent quench) (1 uM CNL001, first column so headed): 80.272%
- YFP fluorescence quenching using CNL001 (percent quench) (1 uM CNL001, second column so headed): 79.432%
- YFP fluorescence quenching (percent quench) (1 uM CNL002): 79.26%
- YFP fluorescence quenching using ABT-126 (percent quench) (1 uM abt (ABT-126)): 72.28%
- YFP fluorescence quenching using TC-5619/Bradanicline (percent quench) (1 uM brd (TC-5619/Bradanicline)): 3.82%
- YFP fluorescence quenching using TC-6683 (percent quench) (3 uM TC-6683): −14.17%
- YFP fluorescence quenching (percent quench) (10 uM ach (acetylcholine)): −3.19%
- YFP fluorescence quenching (percent quench) (30 uM CNL002): 79.96%
- YFP fluorescence quenching using TC-6683 (percent quench) (30 uM TC-6683): 1.86%
- YFP fluorescence quenching using AZD-0328 (percent quench) (30 uM azd0328): 82.3%
- YFP fluorescence quenching using TC-6683 (percent quench) (100 uM TC-6683): 43.61%
- YFP fluorescence quenching (percent quench) (100 uM ach (acetylcholine)): 0.07%
- YFP fluorescence quenching (percent quench) (1 mM ach (acetylcholine)): 71.7%
- YFP fluorescence quenching (percent quench) (3 mM ach (acetylcholine)): 76.95%
- YFP fluorescence quenching using Facinicline, 30 nM fac (ligand Facinicline 30 nM): 4.93
- YFP fluorescence quenching using Facinicline, 300 nM fac (ligand Facinicline 300 nM): 84.13
- YFP fluorescence quenching using Facinicline, 10 uM fac (ligand Facinicline 10 uM): 66.96
- YFP fluorescence quenching using Facinicline, 30 uM fac (ligand Facinicline 30 uM): 85.29
- YFP fluorescence quenching using TC-6987, 1 uM tc6987 (ligand TC-6987 1 uM): −9.74
- YFP fluorescence quenching using TC-6987, 3 uM tc6987 (ligand TC-6987 3 uM): −14.04
- YFP fluorescence quenching using TC-6987, 5 uM tc6987 (ligand TC-6987 5 uM): −0.95
- YFP fluorescence quenching using TC-6987, 10 uM tc6987 (ligand TC-6987 10 uM): −7.41
- YFP fluorescence quenching using TC-6987, 30 uM tc6987 (ligand TC-6987 30 uM): −16.12
- YFP fluorescence quenching using TC-6987, 50 uM tc6987 (ligand TC-6987 50 uM): −12.79
- YFP fluorescence quenching using TC-6987, 100 uM tc6987 (ligand TC-6987 100 uM): −11.77
- YFP fluorescence quenching using TC-6987, 300 uM tc6987 (ligand TC-6987 300 uM): −19.68
- YFP fluorescence quenching using TC-6987, 500 uM tc6987 (ligand TC-6987 500 uM): −17.02
- YFP fluorescence quenching using Varenicline, 3 nM var (first column): −3.433
- YFP fluorescence quenching using Varenicline, 3 nM var (second column): −5.737
- YFP fluorescence quenching using Varenicline, 30 nM var (first column): −5.319
- YFP fluorescence quenching using Varenicline, 30 nM var (second column): −6.175
- YFP fluorescence quenching using Varenicline, 300 nM var (first column): −4.135
- YFP fluorescence quenching using Varenicline, 300 nM var (second column): −8.614
- YFP fluorescence quenching using Varenicline, 500 nM var (first column): −6.062
- YFP fluorescence quenching using Varenicline, 500 nM var (second column): −6.125
- YFP fluorescence quenching using Varenicline, 1 uM var (first column): −14.134
- YFP fluorescence quenching using Varenicline, 1 uM var (second column): −15.373
